The subject of series [1] is HeLa Kyoto. Briefly: solubility change mitosis vs G1/S (difference of NP-40 vs SDS log2 ratios) (log2 ratio difference); higher = more soluble in mitosis.
For series [2], the system named is HeLa Kyoto. Put plainly: solubility in G1/S (NP-40 vs SDS abundance) (log2 ratio); higher = more soluble. To be noted: cell cycle stage: G1/S.
Series [3] has as its system HeLa Kyoto. Briefly: thermal stability score vs G1/S (z-score of summed log2 fold changes over temperatures); higher = more thermally stable than in G1/S.
The subject of series [4] is HeLa Kyoto. Briefly: melting temperature (median over replicates), in situ; higher = more thermally stable.
Setting [5] is: cell cycle stage: early G1 (4.5 h after nocodazole release).
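Wherever melting temperature (median over replicates), in situ is given: HeLa Kyoto cells synchronized by double thymidine or nocodazole block, proteins quantified by TMT10plex mass spectrometry, three independent biological replicates.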
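Wherever solubility change mitosis vs G1/S (difference of NP-40 vs SDS log2 ratios) is given: synchronized HeLa Kyoto cells (double thymidine block for G1/S, nocodazole release for mitosis), protein amounts in NP-40 versus SDS lysates quantified by mass spectrometry, three biological replicates.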
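Wherever solubility in G1/S (NP-40 vs SDS abundance) is given: HeLa Kyoto cells arrested at G1/S by double thymidine block, proteins quantified by TMT10plex mass spectrometry in mild NP-40 versus SDS extracts, three biological replicates.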
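Wherever thermal stability score vs G1/S (z-score of summed log2 fold changes over temperatures) is given: synchronized HeLa Kyoto cells, proteins quantified by TMT10plex mass spectrometry, three biological replicates, mitosis taken 0.5 h after nocodazole release, G1/S directly after double thymidine block.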

As for “MVISESMDILFRIRGGLDLAFQLATPNEIFLKKALKHVLSDLSTKLSSNALVFRICHSSVYIWPSSDINTIPGELTDASACKNILRFIQFEPEEDIKRKFMRKKDKKLSDMHQIVNIDLMLEMSTSLAAVTPIIERESGGHHYVNMTLPVDAVISVAPEETWGKVRKLLVDAIHNQLTDMEKCILKYMKGTSIVVPEPLHFLLPGKKNLVTISYPSGIPDGQLQAYRKELHDLFNLPHDRPYFKRSNAYHFPDEPYKDGYIRNPHTYLNPPNMETGMIYVVQGIYGYHHYMQDRIDDNGWGCAYRSLQTICSWFKHQGYTERSIPTHREIQQALVDAGDKPATFVGSRQWIGSIEVQLVLNQLIGITSKILFVSQGSEIASQGRELANHFQSEGTPVMIGGGVLAHTILGVAWNEITGQIKFLILDPHYTGAEDLQVILEKGWCGWKGPDFWNKDAYYNLCLPQRPNMI [UFSP2]”, the “solubility change mitosis (log2)” value in the series on HeLa Kyoto [1] was -0.212. Also, the “solubility in G1/S (log2)” value in the series with HeLa Kyoto [2] was -0.0543. Also, the thermal stability score with HeLa Kyoto [3] (setting [5]) is -0.738; in the series with HeLa Kyoto [3] (cell cycle stage: mitosis) it was -0.716. For the same sequence, the results for the melting temperature with HeLa Kyoto [4] (cell cycle stage: G1/S) and with HeLa Kyoto [4] (cell cycle stage: mitosis) were 51.2 °C and 51 °C, respectively.
As for “MVKLTAELIEQAAQYTNAVRDRELDLRGYKIPVIENLGATLDQFDAIDFSDNEIRKLDGFPLLRRLKTLLVNNNRICRIGEGLDQALPCLTELILTNNSLVELGDLDPLASLKSLTYLSILRNPVTNKKHYRLYVIYKVPQVRVLDFQKVKLKERQEAEKMFKGKRGAQLAKDIARRSKTFNPGAGLPTDKKKGGPSPGDVEAIKNAIANASTLAEVERLKGLLQSGQIPGRERRSGPTDDGEEEMEEDTVTNGS [SNRPA1]”, in the series with HeLa Kyoto [1], the “solubility change mitosis (log2)” value came to 0.21. For the same sequence, the “solubility in G1/S (log2)” value in the series with HeLa Kyoto [2] was determined as 0.281. Moreover, the results for the thermal stability score in the series with HeLa Kyoto [3] (setting [5]) and in the series on HeLa Kyoto [3] (cell cycle stage: mitosis) were 0.145 and -1.77, respectively. The melting temperature was 54 °C in the series with HeLa Kyoto [4] (cell cycle stage: G1/S) and 54.2 °C with HeLa Kyoto [4] (cell cycle stage: mitosis).
Turning to “MVKQIESKTAFQEALDAAGDKLVVVDFSATWCGPCKMIKPFFHSLSEKYSNVIFLEVDVDDCQDVASECEVKCMPTFQFFKKGQKVGEFSGANKEKLEATINELV [TXN]”, the “solubility change mitosis (log2)” value in the series on HeLa Kyoto [1] is -0.04. For the same sequence, in the series with HeLa Kyoto [2], the “solubility in G1/S (log2)” value amounted to 0.255. Besides, the thermal stability score is -0.802 with HeLa Kyoto [3] (setting [5]) and -2.72 with HeLa Kyoto [3] (cell cycle stage: mitosis). In addition, the results for the melting temperature with HeLa Kyoto [4] (cell cycle stage: G1/S) and in the series with HeLa Kyoto [4] (cell cycle stage: mitosis) were 57.3 °C and 58.1 °C, respectively.
Take “MVLAELYVSDREGSDATGDGTKEKPFKTGLKALMTVGKEPFPTIYVDSQKENERWNVISKSQLKNIKKMWHREQMKSESREKKEAEDSLRREKNLEEAKKITIKNDPSLPEPKCVKIGALEGYRGQRVKVFGWVHRLRRQGKNLMFLVLRDGTGYLQCVLADELCQCYNGVLLSTESSVAVYGMLNLTPKGKQAPGGHELSCDFWELIGLAPAGGADNLINEESDVDVQLNNRHMMIRGENMSKILKARSMVTRCFRDHFFDRGYYEVTPPTLVQTQVEGGATLFKLDYFGEEAFLTQSSQLYLETCLPALGDVFCIAQSYRAEQSRTRRHLAEYTHVEAECPFLTFDDLLNRLEDLVCDVVDRILKSPAGSIVHELNPNFQPPKRPFKRMNYSDAIVWLKEHDVKKEDGTFYEFGEDIPEAPERLMTDTINEPILLCRFPVEIKSFYMQRCPEDSRLTESVDVLMPNVGEIVGGSMRIFDSEEILAGYKREGIDPTPYYWYTDQRKYGTCPHGGYGLGLERFLTWILNRYHIRDVCLYPRFVQRCTP [NARS]”: in the series on HeLa Kyoto [1], the “solubility change mitosis (log2)” value was -0.124. For the same sequence, the “solubility in G1/S (log2)” value in the series with HeLa Kyoto [2] was -0.0613. Further, the thermal stability score in the series with HeLa Kyoto [3] (setting [5]) was 3.39; in the series on HeLa Kyoto [3] (cell cycle stage: mitosis) it was 4. The melting temperature is 52.6 °C in the series on HeLa Kyoto [4] (cell cycle stage: G1/S) and 53.1 °C with HeLa Kyoto [4] (cell cycle stage: mitosis).
Consider “MVLCPVIGKLLHKRVVLASASPRRQEILSNAGLRFEVVPSKFKEKLDKASFATPYGYAMETAKQKALEVANRLYQKDLRAPDVVIGADTIVTVGGLILEKPVDKQDAYRMLSRLSGREHSVFTGVAIVHCSSKDHQLDTRVSEFYEETKVKFSELSEELLWEYVHSGEPMDKAGGYGIQALGGMLVESVHGDFLNVVGFPLNHFCKQLVKLYYPPRPEDLRRSVKHDSIPAADTFEDLSDVEGGGSEPTQRDAGSRDEKAEAGEAGQATAEAECHRTRETLPPFPTRLLELIEGFMLSKGLLTACKLKVFDLLKDEAPQKAADIASKVDASACGMERLLDICAAMGLLEKTEQGYSNTETANVYLASDGEYSLHGFIMHNNDLTWNLFTYLEFAIREGTNQHHRALGKKAEDLFQDAYYQSPETRLRFMRAMHGMTKLTACQVATAFNLSRFSSACDVGGCTGALARELAREYPRMQVTVFDLPDIIELAAHFQPPGPQAVQIHFAAGDFFRDPLPSAELYVLCRILHDWPDDKVHKLLSRVAESCKPGAGLLLVETLLDEEKRVAQRALMQSLNMLVQTEGKERSLGEYQCLLELHGFHQVQVVHLGGVLDAILATKVAP [ASMTL]”, for which the “solubility change mitosis (log2)” value with HeLa Kyoto [1] was -0.178. Further, in the series with HeLa Kyoto [2], the “solubility in G1/S (log2)” value is -0.0739. Besides, the results for the thermal stability score in the series on HeLa Kyoto [3] (setting [5]) and with HeLa Kyoto [3] (cell cycle stage: mitosis) were 0.0527 and 0.533, respectively. Further, the melting temperature in the series with HeLa Kyoto [4] (cell cycle stage: G1/S) came out at 51.6 °C; in the series on HeLa Kyoto [4] (cell cycle stage: mitosis) it was 50.8 °C.
As to “MVMAAKKGPGPGGGVSGGKAEAEAASEVWCRRVRELGGCSQAGNRHCFECAQRGVTYVDITVGSFVCTTCSGLLRGLNPPHRVKSISMTTFTEPEVVFLQSRGNEVCRKIWLGLFDARTSLVPDSRDPQKVKEFLQEKYEKKRWYVPPDQVKGPTYTKGSASTPVQGSIPEGKPLRTLLGDPAPSLSVAASTSSQPVSQSHARTSQARSTQPPPHSSVKKASTDLLADIGGDPFAAPQMAPAFAAFPAFGGQTPSQGGFANFDAFSSGPSSSVFGSLPPAGQASFQAQPTPAGSSQGTPFGATPLAPASQPNSLADVGSFLGPGVPAAGVPSSLFGMAGQVPPLQSVTMGGGGGSSTGLAFGAFTNPFTAPAAQSPLPSTNPFQPNGLAPGPGFGMSSAGPGFPQAVPPTGAFASSFPAPLFPPQTPLVQQQNGSSFGDLGSAKLGQRPLSQPAGISTNPFMTGPSSSPFASKPPTTNPFL [AGFG2]”, the “solubility change mitosis (log2)” value in the series on HeLa Kyoto [1] was -0.0538. Also, the “solubility in G1/S (log2)” value in the series on HeLa Kyoto [2] was determined as 0.247. Moreover, the thermal stability score in the series with HeLa Kyoto [3] (setting [5]) was found to be 0.518; in the series with HeLa Kyoto [3] (cell cycle stage: mitosis), 0.826. Moreover, the melting temperature in the series with HeLa Kyoto [4] (cell cycle stage: G1/S) was 46.6 °C; in the series on HeLa Kyoto [4] (cell cycle stage: mitosis) it was 47.9 °C.

Source of the values: the supplement of paper PMC5998384.
